Experimental data published in the nanobody polyreactivity screen of Harvey et al. (2022).

Assay: yeast display, Sf9 membrane polyspecificity reagent, FACS + sequencing; frameworks hold sequencing errors
Method in brief: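 Nanobodies from a synthetic yeast display library (Saccharomyces cerevisiae BJ5465), induced 36–48 hours with galactose, were stained 1 hour at 4 °C with 10% biotinylated, detergent-solubilized Sf9 membrane reagent, enriched on streptavidin microbeads, then FACS-sorted. Anti-HA (expression) and streptavidin (reagent binding) fluorescence set low and high (top ~1%) gates. Polyreactivity labels come from the gate of origin. Genes were colony-PCR amplified, MiSeq 2 × 250 sequenced and filtered by CDR length.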

Row | Sequence | polyreactivity (PSR sort gate)
1 | QVQLVESGGGLVQAGGSLRLSCAASGIIFHFNAMGWYRQARGKERELVASITRGGNTNYADSVKGRFTISRDNAKNTVYLQMNSLKPEDTAVYYCAAKYRSRYDWGQGTQVTVSS | low polyreactivity
2 | QVQLVESGGGLVQAGGSLRLSCAASGIIFHFNDMGWYRQAPGKERELVAAIDSTGSTNYADSVKGRFTISRDNAKNTVYLQMNSLKPEDTAVYYCAVLNHRVDSVLTRYYYWGQGTQVTVSS | low polyreactivity
3 | QVQLVESGGGLVQAGGSLRLSCAASGIIFHKYSMGWYRQAPGKERELVAVITWRGGTTYYADSVKGRFTISRDNAKNTVYLQMNSLKPEDTAVYYCAAKDRSPRVRYQYEYWGQGTQVTVSS | high polyreactivity
4 | QVQLVESGGGLVQAGGSLRLSCAASGIIFIGYTMGWYRQAPGKERELVAAISRIGGSTYYADSVKGRFTISRDNAKNTVYLQMNSLKPEDTAVYYCAAQYYGSSYRRGYYWGQGTQVTVSS | high polyreactivity
5 | QVQLVESGGGLVQAGGSLRLSCAASGIIFINYAMGWYRQAPGTERELVAVITRGGSTYYADSVKGRFTISRDNAKNTVYLQMNSLKPEDTAVYYCNARYLSWWTGRFNYWGQGTQVTVSS | high polyreactivity
6 | QVQLVESGGGLVQAGGSLRLSCAASGIIFITYAMGWYRQAPGKERELVAAITNSGGGTYYADSVKGRFTISRDNAKNTVDLQMTSLKPEDTAVYYCAARKTAYGYRYDYWGQGTQVTVSS | high polyreactivity
7 | QVQLVESGGGLVQAGGSLRLSCAASGIIFIYYGMGWYRQAPGKERELVAAIARSGGRTYYADSVKGRFTISRHNAKNTVYLQMHSLKPEETAVYYCATTYTPTGFDYWGQGPQVTVSS | high polyreactivity
8 | QVQLVESGGGLVQAGGSLRLSCAASGIIFKGYAMGWYRQAPGKERELVAAISQSGGSTYYADSVKGRFTISRDNAKNTVYLQMNSLKPEDTAVYYCNARYSRVVPRYYYWGQGTQVTVSS | high polyreactivity
9 | QVQLVESGGGLVQAGGSLRLSCAASGIIFKSYAMGWYRQAPGKERELVAAITKRGGSTYYADSVKGRFTISRDNAKNTVYLQMNSLKPEDTAVYYCAADDGVGNTDDYWGQGTQVTVSS | high polyreactivity
10 | QVQLVESGGGLVQAGGSLRLSCAASGIIFKVNDMGWYRQAHGKEREFVAAITYSGDGTFYADSVKGRFTISRDNAKNTVYLQMNSLKPEDTAVYYCAADLPESPESYYDTDDYWGQGPQVTVSS | low polyreactivity
11 | QVQLVESGGGLVQAGGSLRLSCAASGIIFKYYVMGWYRQAPGKERELVASIRWSGGITSYADSVKGRFTISRDNAKNTVYLQMNSLKPEDTAVYYCAVAHSRLRTAYTFSVQRYDYWGQGTQVTVSS | low polyreactivity
12 | QVQLVESGGGLVQAGGSLRLSCAASGIIFLENAMGWYRQAPGKERELVAGISSGGNTNYADSVKGRFTISRDNAKNTVYLQMNSLKPEDTALYYCNKFGYHREYDYWGQVTQVTVSS | low polyreactivity
13 | QVQLVESGGGLVQAGGSLRLSCAASGIIFLVNAMGWYRQAPGKESELVATITSGGSTYADSVKGRFTISRDNAKYTVYLQMNSLKPEDTAVYYCAAVRRRRNSYGYWGQGTQVTVSS | high polyreactivity
14 | QVQLVESGGGLVQAGGSLRLSCAASGIIFLWYAMRWYRQAPGKERELVAAISRTGSSTYYADSVKGRFTISRDTAKNTVYLQMNSLKPEDTAVYYCAAAYYSNRSWRFDYWGQGTQVTVSS | high polyreactivity
15 | QVQLVESGGGLVQAGGSLRLSCAASGIIFLYNDMGGYRHAPGKEREFVATISRSGGSTYYADSVKGRFTISRDNAKNTVYLQMNSLKPEDTAVYYCAADEDSGYGYWGQGTQVTVSS | low polyreactivity
16 | QVQLVESGGGLVQAGGSLRLSCAASGIIFNKYAMGWYRQAPGKEREFVAAITYRGGSTYYADSVKGRFTISRDNAKNTVYLQMNSLKPEDTAVYYCAARRITTYYYWGQGTQVTVSS | high polyreactivity
17 | QVQLVESGGGLVQAGGSLRLSCAASGIIFNSNAMGWYRQAPGKERELVAAISVSGGSTYYADSVKGRFTISRDNAKNTVYLQMNILKPEDTAVYYCAAVFYYWSLRSYYWGQGTQVTVSS | high polyreactivity
18 | QVQLVESGGGLVQAGGSLRLSCAASGIIFNWYAMGWYRQAPGKERELVAGISTSGGSTYYADSVKGRFTISRDNAKNTVYLQMNSLKPEDTAVYYCAARSRRYYGYDYWGQGTQVTVSS | high polyreactivity
19 | QVQLVESGGGLVQAGGSLRLSCAASGIIFPFYGMGWYRPAPGKERELVAAITSGDDTYYADSVKGRFTISRDNAKNTVYLQMNSLKPEDTAVYYCNKRVYIAGYWPQLYYIMDYWGQGTQVTVSS | low polyreactivity
20 | QVQLVESGGGLVQAGGSLRLSCAASGIIFPGYAMGWYRQAPGKERELVAAISRSGASTYYADSVKGRFTISRDNAKNTVYLQMNSLKPEDTAVYYCAAEWYRGGEYRRYDYWGQGTQVTVSS | high polyreactivity
21 | QVQLVESGGGLVQAGGSLRLSCAASGIIFPGYAMGWYRQAPGKERELVAAISSSGSSTYYADSVKGRFTISRDNGKNTVYLQMNSLKPEDTAVYYCAAVRYGLRRMDYWGQGTQVTVSS | high polyreactivity
22 | QVQLVESGGGLVQAGGSLRLSCAASGIIFPKYVMGWYRKAPGKERELVAAISWSGTSTYYADSVKGRFTISRDNAKNTVYLQMNSLKPEDTAVYYCAARWSSTTGRFDYWGQGTQVTVSS | high polyreactivity
23 | QVQLVESGGGLVQAGGSLRLSCAASGIIFPPYAMGWYRQAPGKEREFVAGITSSGGTYYADSVKGRFTISRDNAKNTVFLQMNSLKPDDTAVYYCAARQGNLRRGFRWFNYWGQGTQVTVSS | high polyreactivity
24 | QVQLVESGGGLVQAGGSLRLSCAASGIIFPRYAMGWYRQAPGKEREVVAAITSGGSTYYADSVKGRFTISRDNAKNTVYLQINSLKPEDTAVSYCAAVRYSWDIYREYYYWGQGTQVTVSS | high polyreactivity
25 | QVQLVESGGGLVQAGGSLRLSCAASGIIFPRYAMGWYRQEPGKERELVAAITRRGGRTYYADSVKGRFTISRDNAKNTVYLQMNSLKPEDTAVYYCAARKVNRGSGGYDSWGQGTQVTVSS | high polyreactivity
26 | QVQLVESGGGLVQAGGSLRLSCAASGIIFPSYAMGWYRQAPGKERELVAGISSGGNTYYADSVKGRFTISRDNAKNTVYLQMNSLKPEDTAVYYCATAFAIWGLYYGYDYWGQGTQVTVSS | low polyreactivity
27 | QVQLVESGGGLVQAGGSLRLSCAASGIIFPSYDMGWYRQAPGKERELVAGITDGGDTTYADSVKWRFTISRDNAKNTVYLQMNSLKPEDTAVYYCAADIGYGYWHFDYWGQGTQVTVSW | low polyreactivity
28 | QVQLVESGGGLVQAGGSLRLSCAASGIIFPWYDMGWYRQAPGKERELVAGITDGGDTTYADSVKWRFTISRDNAKNTVYLQMNSLKPEDTAVYYCAADIGYGYWHFDYWGQGTQVTVSS | low polyreactivity
29 | QVQLVESGGGLVQAGGSLRLSCAASGIIFPWYTMGWYRQAPGKERELVAAISSGGRTNYADSVKGRFTISRDNAKYTVYLQMNSLKPEDTAVYYCAAKYYRDRDWGQGTQVTVSS | high polyreactivity
30 | QVQLVESGGGLVQAGGSLRLSCAASGIIFPYYAMGLYRQAPGKERELVAAITSRTGSTYYADSVKGRFTISRDNAKNTVYLQMNSLNTEYTAVYYCIKEREPYGYWSFDYWGQGTQVTVSS | low polyreactivity
